# From patent US20240117018A1
# B1: N49P23 (antibody, V domains shown)
# VH: QVRLVQSGAGARKTGASMKLSCSTSGYTFTTHHGHFINWVRQARGQGLEWMGWMNPMTGQMNIEGKFQGRVTLTRDIYSDTAYMEMTRLTTGDTGTYYCARGDFGQNYPFHYWGQGSLVIVSS
# VL: LSALTQPASVSGSPGQSVTISCSGTNRYLVSWYQQHPDKAPKLIIYDDNKRPSGISDRFSASRPDDTASLTISGLQTGDEATYWCASYERFGGGTRLTVLS
# Legend:
# Assay in all cases: cell-based or functional assay
# [1] = target: 1012_11_TC21_3257 Env pseudovirus (HIV-1)
# [2] = target: 246F C1G Env pseudovirus (HIV-1)
# [3] = target: 263-8 Env pseudovirus (HIV-1)
# [4] = target: 3365.v2.c2 Env pseudovirus (HIV-1)
# [5] = target: 3415.v1.c1 Env pseudovirus (HIV-1)
# [6] = target: 6240_08_TA5_4622 Env pseudovirus (HIV-1)
# [7] = target: 6535.3 Env pseudovirus (HIV-1)
# [8] = target: 7030102001E5(Rev-) Env pseudovirus (HIV-1)
# [9] = target: 9004SS_A3_4 Env pseudovirus (HIV-1)
# [10] = target: CAP210.2.00.E8 Env pseudovirus (HIV-1)
# [11] = target: CAP45.2.00.G3 Env pseudovirus (HIV-1)
# [12] = target: CNE19 Env pseudovirus (HIV-1)
# [13] = target: CNE21 Env pseudovirus (HIV-1)
# [14] = target: CNE30 Env pseudovirus (HIV-1)
# [15] = target: CNE52 Env pseudovirus (HIV-1)
# [16] = target: Ce0393_C3 Env pseudovirus (HIV-1)
# [17] = target: Ce1172_H1 Env pseudovirus (HIV-1)
# [18] = target: Ce2060_G9 Env pseudovirus (HIV-1)
# [19] = target: Ce703010054_2A2 Env pseudovirus (HIV-1)
# [20] = target: Ce704809221_1B3 Env pseudovirus (HIV-1)
# [21] = target: Du156.12 Env pseudovirus (HIV-1)
# [22] = target: Du422.1 Env pseudovirus (HIV-1)
# [23] = target: MS208.A1 Env pseudovirus (HIV-1)
# [24] = target: PVO.4 Env pseudovirus (HIV-1)
# [25] = target: Q259.d2.17 Env pseudovirus (HIV-1)
# [26] = target: QH0692.42 Env pseudovirus (HIV-1)
# [27] = target: RHPA4259.7 Env pseudovirus (HIV-1)
# [28] = target: SC05_8C11_2344 Env pseudovirus (HIV-1)
# [29] = target: TRJO4551.58 Env pseudovirus (HIV-1)
# [30] = target: TRO.11 Env pseudovirus (HIV-1)
# [31] = target: WITO4160.33 Env pseudovirus (HIV-1)
# [32] = target: ZM135M.PL10a Env pseudovirus (HIV-1)
# [33] = target: ZM197M.PB7 Env pseudovirus (HIV-1)
# [34] = target: ZM214M.PL15 Env pseudovirus (HIV-1)
# [35] = target: ZM233M.PB6 Env pseudovirus (HIV-1)
# [36] = target: ZM247v1(Rev-) Env pseudovirus (HIV-1)
binder,measurement,setting,value
B1,IC50,[1],0.013 µg/mL
same,IC80,[1],0.085 µg/mL
same,MPI,[1],100
same,IC50,[2],> 50 µg/mL
same,IC80,[2],> 50 µg/mL
same,MPI,[2],11
same,IC50,[3],0.012 µg/mL
same,IC80,[3],0.096 µg/mL
same,MPI,[3],100
same,IC50,[4],0.017 µg/mL
same,IC80,[4],0.053 µg/mL
same,MPI,[4],100
same,IC50,[5],0.054 µg/mL
same,IC80,[5],0.19 µg/mL
same,MPI,[5],100
same,IC50,[6],0.215 µg/mL
same,IC80,[6],1 µg/mL
same,MPI,[6],100
same,IC50,[7],0.127 µg/mL
same,IC80,[7],0.855 µg/mL
same,MPI,[7],100
same,IC50,[8],0.172 µg/mL
same,IC80,[8],0.797 µg/mL
same,MPI,[8],100
same,IC50,[9],0.043 µg/mL
same,IC80,[9],0.223 µg/mL
same,MPI,[9],100
same,IC50,[10],> 50 µg/mL
same,IC80,[10],> 50 µg/mL
same,MPI,[10],2
same,IC50,[11],> 50 µg/mL
same,IC80,[11],> 50 µg/mL
same,MPI,[11],0
same,IC50,[12],> 50 µg/mL
same,IC80,[12],> 50 µg/mL
same,MPI,[12],40
same,IC50,[13],> 50 µg/mL
same,IC80,[13],> 50 µg/mL
same,MPI,[13],0
same,IC50,[14],0.143 µg/mL
same,IC80,[14],0.68 µg/mL
same,MPI,[14],100
same,IC50,[15],0.014 µg/mL
same,IC80,[15],0.051 µg/mL
same,MPI,[15],100
same,IC50,[16],> 50 µg/mL
same,IC80,[16],> 50 µg/mL
same,MPI,[16],29
same,IC50,[17],> 50 µg/mL
same,IC80,[17],> 50 µg/mL
same,MPI,[17],0
same,IC50,[18],0.18 µg/mL
same,IC80,[18],0.849 µg/mL
same,MPI,[18],99
same,IC50,[19],> 50 µg/mL
same,IC80,[19],> 50 µg/mL
same,MPI,[19],35
same,IC50,[20],0.083 µg/mL
same,IC80,[20],0.643 µg/mL
same,MPI,[20],100
same,IC50,[21],> 50 µg/mL
same,IC80,[21],> 50 µg/mL
same,MPI,[21],0
same,IC50,[22],> 50 µg/mL
same,IC80,[22],> 50 µg/mL
same,MPI,[22],4
same,IC50,[23],0.048 µg/mL
same,IC80,[23],0.279 µg/mL
same,MPI,[23],100
same,IC50,[24],0.087 µg/mL
same,IC80,[24],0.43 µg/mL
same,MPI,[24],100
same,IC50,[25],0.362 µg/mL
same,IC80,[25],7.79 µg/mL
same,MPI,[25],91
same,IC50,[26],0.557 µg/mL
same,IC80,[26],2.51 µg/mL
same,MPI,[26],100
same,IC50,[27],0.01 µg/mL
same,IC80,[27],0.04 µg/mL
same,MPI,[27],100
same,IC50,[28],0.133 µg/mL
same,IC80,[28],0.548 µg/mL
same,MPI,[28],100
same,IC50,[29],0.016 µg/mL
same,IC80,[29],0.068 µg/mL
same,MPI,[29],100
same,IC50,[30],0.094 µg/mL
same,IC80,[30],0.336 µg/mL
same,MPI,[30],100
same,IC50,[31],0.045 µg/mL
same,IC80,[31],0.205 µg/mL
same,MPI,[31],100
same,IC50,[32],> 50 µg/mL
same,IC80,[32],> 50 µg/mL
same,MPI,[32],36
same,IC50,[33],0.1 µg/mL
same,IC80,[33],0.385 µg/mL
same,MPI,[33],100
same,IC50,[34],0.061 µg/mL
same,IC80,[34],0.614 µg/mL
same,MPI,[34],100
same,IC50,[35],> 50 µg/mL
same,IC80,[35],> 50 µg/mL
same,MPI,[35],14
same,IC50,[36],> 50 µg/mL
same,IC80,[36],> 50 µg/mL
same,MPI,[36],24
